Laboratory results published in publication PMC3563628, “Prevalence, Specificity and Determinants of Lipid-Interacting PDZ Domains from an In-Cell Screen and In Vitro Binding Experiments” (PLoS ONE, 2013).
Positions count from the first letter of the chain named. Numbers in names are those of the source. Where two headings read alike, the source gives them in different places.

Legend:
[1] = system: eYFP-S1PDZ1-MAGI3_3 and eYFP-S1PDZ1-IL16_1 in MCF-7 cells; assay: Pharmacological treatment, peroxisomal enrichment of eYFP-S1PDZ1-MAGI3_3 and eYFP-S1PDZ1-IL16_1; type: cell-based; conditions: wortmannin 500 nM, LY294002 50 µM, ionomycin 10 µM
[2] = system: eYFP-S1PDZ1-FYVE in MCF-7 cells; assay: Pharmacological treatment, localization of eYFP-S1PDZ1-FYVE; type: cell-based; conditions: wortmannin 500 nM or LY294002 50 µM for 30 min, YM201636 800 nM for 2 h
[3] = system: eYFP-S1PDZ1-CASK in MCF-7 cells; assay: Pharmacological treatment, plasma membrane localization of eYFP-S1PDZ1-CASK; type: cell-based
[4] = system: eYFP-S1PDZ1-MPDZ_7 in MCF-7 cells; assay: Pharmacological treatment, plasma membrane localization of eYFP-S1PDZ1-MPDZ_7; type: cell-based; conditions: ionomycin 10 µM
DFNB31_1/Y167W = target: T1, DFNB31_1/Y167W (human, UniProt Q9P202 136-224, Y167W); assay: other fluorescence titration; equilibrium titration of peptide into Trp-engineered PDZ domain kept constant at 3 µM, followed by intrinsic tryptophan fluorescence; 25°C, 25 mM HEPES, 150 mM NaCl, pH 7.2, 1 mM beta-mercaptoethanol; conditions: both partners purified
T1 construct: first PDZ domain of human DFNB31 (whirlin); predicted PDZ domain (Interpro, PFAM, SMART) with ten amino acids of the original protein added on each side; also called first PDZ domain of DFNB31 with a Trp probe
T1 sequence: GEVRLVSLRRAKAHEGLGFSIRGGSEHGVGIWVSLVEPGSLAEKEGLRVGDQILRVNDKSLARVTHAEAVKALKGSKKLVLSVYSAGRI

[5] = target: T2, DFNB31_1/R144E (with Y167W) (human, UniProt Q9P202 136-224, R144E | Y167W); assay: as above; conditions: both partners purified
T2 construct: first PDZ domain of human DFNB31 (whirlin); predicted PDZ domain with ten amino acids added on each side
T2 sequence: T1 sequence with R9E

[6] = target: T3, DFNB31_1/R145E (with Y167W) (human, UniProt Q9P202 136-224, R145E | Y167W); assay: as above; conditions: both partners purified
T3 construct: first PDZ domain of human DFNB31 (whirlin); predicted PDZ domain with ten amino acids added on each side
T3 sequence: T1 sequence with R10E

[7] = target: T4, DFNB31_1/K212E (with Y167W) (human, UniProt Q9P202 136-224, K212E | Y167W); assay: as above; conditions: both partners purified
T4 construct: first PDZ domain of human DFNB31 (whirlin); predicted PDZ domain with ten amino acids added on each side
T4 sequence: T1 sequence with K77E

[8] = target: T5, DFNB31_1/K206E (with Y167W) (human, UniProt Q9P202 136-224, K206E | Y167W); assay: as above; conditions: both partners purified
T5 construct: first PDZ domain of human DFNB31 (whirlin); predicted PDZ domain with ten amino acids added on each side
T5 sequence: T1 sequence with K71E

[9] = target: T6, DFNB31_1/K209E (with Y167W) (human, UniProt Q9P202 136-224, K209E | Y167W); assay: as above; conditions: both partners purified
T6 construct: first PDZ domain of human DFNB31 (whirlin); predicted PDZ domain with ten amino acids added on each side; The text once prints R209E for this mutant; also called R209E (once in the text)
T6 sequence: T1 sequence with K74E

CASK/I517W = target: T7, CASK/I517W (human, UniProt O14936 489-564); assay: as above; conditions: both partners purified
T7 chain: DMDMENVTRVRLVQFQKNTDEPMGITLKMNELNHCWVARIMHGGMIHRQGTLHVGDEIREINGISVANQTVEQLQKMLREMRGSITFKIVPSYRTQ

[10] = target: C-terminal peptide of usher (FTDTHL); assay: Equilibrium peptide binding titration followed by intrinsic tryptophan fluorescence; conditions: for Kd: Y167W mutation introduced as fluorescent probe, protein 3 µM, 25°C, pH 7.2
Description: Given the overall low PtdInsPs specificities, and often modest PtdInsPs affinities, it is unlikely that PtdInsPs bindings alone target the PDZ domains to their defined subcellular compartments. Plausibly, peptide interactions are also involved in controlling the subcellular targeting. To address the interplay between PtdInsPs and peptide-binding we chose DFNB31_1 and CASK as models, taking two of the PDZ domains with well-defined cognate peptides. Cognate peptide ligands were the C-terminal peptides of usher (FTDTHL) for DFNB31_1 [50] and the TKEFYA peptide of syndecan-2 for CASK [51]. We measured the PDZ-peptide affinities by a fluorescence-based approach (Fig. 4E), by engineering Trp into the PDZ scaffolds and following the interactions by changes in intrinsic fluorescence, a strategy previously established for other PDZ domains (KD-values: DFNB31_1/Y167W for FTDTHL 46±6 µM; CASK/I157W for TKEFYA 280±20 µM), [52]. We then determined the apparent PtdIns(4,5)P2 affinities in presence of a (close to) saturating concentration of respective peptide (1 mM). The FTDTHL peptide appeared to compete for DFNB31_1-PtdIns(4,5)P2 interactions (KD ^PtdIns(4,5)P2 in presence of peptide >30 µM, Fig. 4F), which might indicate overlapping binding sites. […] We have previously reported on competitive binding by peptide and PtdIns(4,5)P2 with CASK [13]. However, in these experiments the peptide was linked to sepharose beads and PtdIns(4,5)P2 was present on micelles, which made it more difficult for the PDZ domain to simultaneously interact with the two ligands.
(§1) Spectrofluorimetric measurements were performed at 25°C in 25 mM HEPES, 150 mM NaCl, pH 7.2 and 1 mM beta-mercaptoethanol in a Carry Eclipse Spectrofluorimeter (Varian). The peptides corresponded to the C-termini of syndecan-2 (TKEFYA) and usher (FTDTHL) and were of high purity (purity >95%, GeneCust), and the experiment were performed and analyzed as described previously. Urea induced equilibrium unfolding experiments were performed using 1 µM of proteins (excitation 280 nm emission 320–380 nm) and the data fitted by a standard two-state model.

[11] = Urea induced equilibrium unfolding followed by fluorescence; type: physicochemical; conditions: Y167W background, ΔGD-N mut − ΔGD-N wt
Method: as §1
The effects of the mutations on the stability were calculated by ΔΔGD −N = ΔGD −Nmut − ΔGD −Nwt, where ΔΔGD-N is the difference between the free energies of unfolding upon mutation.

[12] = SPR equilibrium binding of his-tagged PDZ domains to PtdIns(4,5)P2 liposomes; conditions: for Kd: SPR equilibrium analysis, 5% PtdIns(4,5)P2 in DOPC liposomes, 25°C, pH 7.2, read-out: KD app PtdIns(4,5)P2
[13] = MCF-7, ionomycin 10 µM, PAO 100 µM, wortmannin 500 nM

With O=c1cc(N2CCOCC2)oc2c(-c3ccccc3)cccc12 [LY294002, 2-(4-morpholinyl)-8-phenyl-4H-1-benzopyran-4-one] the “peroxisomal enrichments of eYFP-S1PDZ1-MAGI3_3 and eYFP-S1PDZ1-IL16_1 upon treatment” value (“peroxisomal enrichments” for short) [1] was “did not alter” and the “localization of eYFP-S1PDZ1-FYVE upon treatment” value [2] was “lost”.

With Nc1ccc(C(=O)Nc2cccc(-c3nc(N4CCOCC4)c4oc5ncccc5c4n3)c2)cn1 [YM201636] the “localization of eYFP-S1PDZ1-FYVE upon treatment” value [2] was “accumulation of eYFP-S1PDZ1-FYVE at the limiting membranes”.

For CCCCOc1cc(C(=O)NCCN(CC)CC)c2ccccc2n1 [dibucaine], the “plasma membrane localization of eYFP-S1PDZ1-CASK upon treatment” value [3, 13] was “failed to release”.

With C[C@H](CCC(=O)O)C[C@H](C)C[C@H](C)C(=O)/C=C(\O)[C@H](C)C[C@H](C)C/C=C/[C@@H](C)[C@@H](O)[C@@H](C)[C@@H](O)C[C@@H]1CC[C@@](C)([C@H]2CC[C@@](C)([C@@H](C)O)O2)O1 [ionomycin] the “plasma membrane localization of eYFP-S1PDZ1-CASK upon treatment” value [3] was “loss of membrane localization”, the “peroxisomal enrichments” value [1] was “did not alter” and the “plasma membrane localization of eYFP-S1PDZ1-MPDZ_7 upon treatment” value [4] was “not”.

In the case of COC[C@H]1OC(=O)c2coc3c2[C@@]1(C)C1=C(C3=O)[C@@H]2CCC(=O)[C@@]2(C)C[C@H]1OC(C)=O [wortmannin], the “plasma membrane localization of eYFP-S1PDZ1-CASK upon treatment” value [3, 13] is reported as “failed to release”, the “peroxisomal enrichments” value [1] is reported as “did not alter” and the “localization of eYFP-S1PDZ1-FYVE upon treatment” value [2] is reported as “lost”.

B1: C-terminal peptide of usher (FTDTHL) (peptide)
peptide: FTDTHL
notes: last six residues; also called FTDTHL peptide; source: synthetic peptide, bought: GeneCust (purity >95%)
Work on B1 yielded a Kd (DFNB31_1/Y167W) of 46 ± 6 µM, a Kd [5] of 82 ± 3 µM and a Kd [6] of 71 ± 8 µM. It also gave a Kd [7] of 220 ± 40 µM, a Kd [8] of 111 ± 8 µM and a Kd [9] of 175 ± 15 µM.

B2: C-terminal peptide of syndecan-2 (TKEFYA) (peptide)
peptide: TKEFYA
notes: C-terminus of syndecan-2; last six residues; also called TKEFYA peptide of syndecan-2; source: synthetic peptide, bought: GeneCust (purity >95%)
In the case of B2, the Kd (CASK/I517W) is reported as 280 ± 20 µM.

B3: DFNB31_1/Y167W: DFNB31_1 with Y167W mutation as fluorescent probe (protein)
chain: T1 sequence
modifications: left off: His6, N-terminal, state not stated
notes: DFNB31_1 with Y167W mutation as fluorescent probe
With B3 the Kd [10] was 46 ± 6 µM.

B4: DFNB31_1/K206E: DFNB31_1 PDZ domain mutant K206E (protein)
chain: T1 sequence with K71E
modifications: left off: His6, N-terminal, state not stated
Work on B4 yielded a ΔΔGD-N [11] of 0.41 ± 0.03 kcal/mol, a Kd [12] of 8.2 ± 2 µM and a Kd [10] of 111 ± 8 µM. For the same molecule, the “decrease in peptide binding affinity upon mutation” value ([10]; versus DFNB31_1 (Y167W background)) was 2 fold.

B5: DFNB31_1/R145E: DFNB31_1 PDZ domain mutant R145E (protein)
chain: T1 sequence with R10E
modifications: left off: His6, N-terminal, state not stated
With B5 the ΔΔGD-N [11] was -0.53 ± 0.05 kcal/mol, the Kd [12] was 15 ± 5 µM and the “decrease in PtdIns(4,5)P2 binding upon mutation” value ([12]; versus wild type DFNB31_1) was 2 fold. It also gave a Kd [10] of 71 ± 8 µM.

B6: DFNB31_1/K212E: DFNB31_1 PDZ domain mutant K212E (protein)
chain: T1 sequence with K77E
modifications: left off: His6, N-terminal, state not stated
Work on B6 yielded a ΔΔGD-N [11] of 1.2 ± 0.1 kcal/mol, a Kd [12] greater than 20 µM and a Kd [10] of 220 ± 40 µM.

B7: DFNB31_1/K209E: DFNB31_1 PDZ domain mutant K209E (protein)
chain: T1 sequence with K74E
modifications: left off: His6, N-terminal, state not stated
B7 showed a ΔΔGD-N [11] of -0.15 ± 0.01 kcal/mol, a Kd [12] greater than 20 µM and a Kd [10] of 175 ± 15 µM.

B8: DFNB31_1/R144E: DFNB31_1 PDZ domain mutant R144E (protein)
chain: T1 sequence with R9E
modifications: left off: His6, N-terminal, state not stated
Molecule B8 has a ΔΔGD-N [11] of -0.65 ± 0.05 kcal/mol, a Kd [12] greater than 20 µM and a Kd [10] of 82 ± 3 µM.
